# B1: Dkk-2: Dkk family protein found to directly bind LRP6 (protein, UniProt Q9UBU2 34-259, looked up)
# Dickkopf-related protein 2: KLNSIKSSLGGETPGQAANRSAGMYQGLAFGGSKKGKNLGQAYPCSSDKECEVGRYCHSPHQGSSACMVCRRKKKRCHRDGMCCPSTRCNNGICIPVTESILTPHIPALDGTRHRDRNHGHYSNHDLGWQNLGRPHTKMSHIKGHEGDPCLRSSDCIEGFCCARHFWTKICKPVLHQGEVCTKQRKKGSHGLEIFQRCDCAKGLSCKVWKDATYSSKARLHVCQKI
# B2: Dkk-1 mutant having cysteine 220 changed to alanine: Dkk-1 mutant having cysteine 220 changed to alanine (protein, UniProt O94907 32-266, looked up, variant C220A)
# Dickkopf-related protein 1: TLNSVLNSNAIKNLPPPLGGAAGHPGSAVSAAPGILYPGGNKYQTIDNYQPYPCAEDEECGTDEYCASPTRGGDAGVQICLACRKRRKRCMRHAMCCPGNYCKNGICVSSDQNHFRGEIEETITESFGNDHSTLDGYSRRTTLSSKMYHTKGQEGSVCLRSSDCASGLCCARHFWSKICKPVLKEGQVATKHRRKGSHGLEIFQRCYCGEGLSCRIQKDHHQASNSSRLHTCQRH
# B3: HBM ECD: extracellular domain (ECD) of HBM (protein, UniProt O75197 32-1384, looked up, variant G171V)
# extracellular domain: SPLLLFANRRDVRLVDAGGVKLESTIVVSGLEDAAAVDFQFSKGAVYWTDVSEEAIKQTYLNQTGAAVQNVVISGLVSPDGLACDWVGKKLYWTDSETNRIEVANLNGTSRKVLFWQDLDQPRAIALDPAHGYMYWTDWVETPRIERAGMDGSTRKIIVDSDIYWPNGLTIDLEEQKLYWADAKLSFIHRANLDGSFRQKVVEGSLTHPFALTLSGDTLYWTDWQTRSIHACNKRTGGKRKEILSALYSPMDIQVLSQERQPFFHTRCEEDNGGCSHLCLLSPSEPFYTCACPTGVQLQDNGRTCKAGAEEVLLLARRTDLRRISLDTPDFTDIVLQVDDIRHAIAIDYDPLEGYVYWTDDEVRAIRRAYLDGSGAQTLVNTEINDPDGIAVDWVARNLYWTDTGTDRIEVTRLNGTSRKILVSEDLDEPRAIALHPVMGLMYWTDWGENPKIECANLDGQERRVLVNASLGWPNGLALDLQEGKLYWGDAKTDKIEVINVDGTKRRTLLEDKLPHIFGFTLLGDFIYWTDWQRRSIERVHKVKASRDVIIDQLPDLMGLKAVNVAKVVGTNPCADRNGGCSHLCFFTPHATRCGCPIGLELLSDMKTCIVPEAFLVFTSRAAIHRISLETNNNDVAIPLTGVKEASALDFDVSNNHIYWTDVSLKTISRAFMNGSSVEHVVEFGLDYPEGMAVDWMGKNLYWADTGTNRIEVARLDGQFRQVLVWRDLDNPRSLALDPTKGYIYWTEWGGKPRIVRAFMDGTNCMTLVDKVGRANDLTIDYADQRLYWTDLDTNMIESSNMLGQERVVIADDLPHPFGLTQYSDYIYWTDWNLHSIERADKTSGRNRTLIQGHLDFVMDILVFHSSRQDGLNDCMHNNGQCGQLCLAIPGGHRCGCASHYTLDPSSRNCSPPTTFLLFSQKSAISRMIPDDQHSPDLILPLHGLRNVKAIDYDPLDKFIYWVDGRQNIKRAKDDGTQPFVLTSLSQGQNPDRQPHDLSIDIYSRTLFWTCEATNTINVHRLSGEAMGVVLRGDRDKPRAIVVNAERGYLYFTNMQDRAAKIERAALDGTEREVLFTTGLIRPVALVVDNTLGKLFWVDADLKRIESCDLSGANRLTLEDANIVQPLGLTILGKHLYWIDRQQQMIERVEKTTGDKRTRIQGRVAHLTGIHAVEEVSLEEFSAHPCARDNGGCSHICIAKGDGTPRCSCPVHLVLLQNLLTCGEPPTCSPDQFACATGEIDCIPGAWRCDGFPECDDQSDEEGCPVCSAAQFPCARGQCVDLRLRCDGEADCQDRSDEADCDAICLPNQFRCASGQCVLIKQQCDSFPDCIDGSDELMCEITKPPSDDSPAHS
# modifications: extracellular domain
# B4: human parathyroid hormone (peptide, UniProt P01270 32-115, looked up)
# Parathyroid hormone: SVSEIQLMHNLGKHLNSMERVEWLRKKLQDVHNFVALGAPLAPRDAGSQRPRKKEDNVLVESHEKSLGEADKADVNVLTKAKSQ
# modifications: Parathyroid hormone
# notes: human parathyroid hormone (hPTH), anabolic agent
# What was measured:
# [1] = system: ovariectomized het and ntg mice; test: ovx-induced osteopenia in het and ntg mice treated with 17β-estradiol; type: in vivo, mouse; settings: both het and ntg; ovariectomized at 9 weeks; 10 μg/kg/day 17β-estradiol for 35 days
# Experimental: To determine whether the mutation had any effect on ovx-induced osteopenia, het and ntg mice were ovariectomized at 9 weeks of age and treated for 35 days with vehicle or 10 μg/kg/day 17β-estradiol (E2). The percent change in total, trabecular and cortical density in het and ntg ovx mice from those values in their respective sham operated controls were determined. […] Ovariectomy induced a 14.3% decrease in total BMD (696±6 to 597±7 mg/cm^3) and a 26.3% decrease in trabecular BMD (445±9 to 328±7 mg/cm^3) in the het group and a 14.9% decrease in total BMD (470±10 to 400±7 mg/cm^3) and 37.6% decrease in trabecular BMD (132±4 to 82±2 mg/cm^3) in the ntg group.
# [2] = system: HBM-mediated Wnt signaling; test: Dkk-1 repression of HBM-mediated Wnt signaling; type: cell-based; settings: compared with LRP5-mediated signaling
# From the text: (§1) 1, 2002, and 60/361,293 filed Mar. 4, 2002. This observation is of particular interest because the HBM mutation in LRP5 is a gain of function or activation mutation. That is, Wnt signaling, via the canonical pathway, is enhanced with HBM versus LRP5. Not wishing to be bound by theory, it is believed that this interaction provides an explanation of the developmental signaling differences between HBM and the more common LRP5/LRP6.
# [3] = system: canonical Wnt signaling; settings: cited from earlier work
# [4] = system: LRP5-mediated Wnt signaling; test: Dkk-1 repression of LRP5-mediated Wnt signaling; type: cell-based
# From the text: as §1
# [5] = target: HBM (Homo sapiens, UniProt O75197, G171V); test: Dkk-1 binding to HBM; settings: observed by the inventors
# Chain of HBM (O75197 32-1615 G171V): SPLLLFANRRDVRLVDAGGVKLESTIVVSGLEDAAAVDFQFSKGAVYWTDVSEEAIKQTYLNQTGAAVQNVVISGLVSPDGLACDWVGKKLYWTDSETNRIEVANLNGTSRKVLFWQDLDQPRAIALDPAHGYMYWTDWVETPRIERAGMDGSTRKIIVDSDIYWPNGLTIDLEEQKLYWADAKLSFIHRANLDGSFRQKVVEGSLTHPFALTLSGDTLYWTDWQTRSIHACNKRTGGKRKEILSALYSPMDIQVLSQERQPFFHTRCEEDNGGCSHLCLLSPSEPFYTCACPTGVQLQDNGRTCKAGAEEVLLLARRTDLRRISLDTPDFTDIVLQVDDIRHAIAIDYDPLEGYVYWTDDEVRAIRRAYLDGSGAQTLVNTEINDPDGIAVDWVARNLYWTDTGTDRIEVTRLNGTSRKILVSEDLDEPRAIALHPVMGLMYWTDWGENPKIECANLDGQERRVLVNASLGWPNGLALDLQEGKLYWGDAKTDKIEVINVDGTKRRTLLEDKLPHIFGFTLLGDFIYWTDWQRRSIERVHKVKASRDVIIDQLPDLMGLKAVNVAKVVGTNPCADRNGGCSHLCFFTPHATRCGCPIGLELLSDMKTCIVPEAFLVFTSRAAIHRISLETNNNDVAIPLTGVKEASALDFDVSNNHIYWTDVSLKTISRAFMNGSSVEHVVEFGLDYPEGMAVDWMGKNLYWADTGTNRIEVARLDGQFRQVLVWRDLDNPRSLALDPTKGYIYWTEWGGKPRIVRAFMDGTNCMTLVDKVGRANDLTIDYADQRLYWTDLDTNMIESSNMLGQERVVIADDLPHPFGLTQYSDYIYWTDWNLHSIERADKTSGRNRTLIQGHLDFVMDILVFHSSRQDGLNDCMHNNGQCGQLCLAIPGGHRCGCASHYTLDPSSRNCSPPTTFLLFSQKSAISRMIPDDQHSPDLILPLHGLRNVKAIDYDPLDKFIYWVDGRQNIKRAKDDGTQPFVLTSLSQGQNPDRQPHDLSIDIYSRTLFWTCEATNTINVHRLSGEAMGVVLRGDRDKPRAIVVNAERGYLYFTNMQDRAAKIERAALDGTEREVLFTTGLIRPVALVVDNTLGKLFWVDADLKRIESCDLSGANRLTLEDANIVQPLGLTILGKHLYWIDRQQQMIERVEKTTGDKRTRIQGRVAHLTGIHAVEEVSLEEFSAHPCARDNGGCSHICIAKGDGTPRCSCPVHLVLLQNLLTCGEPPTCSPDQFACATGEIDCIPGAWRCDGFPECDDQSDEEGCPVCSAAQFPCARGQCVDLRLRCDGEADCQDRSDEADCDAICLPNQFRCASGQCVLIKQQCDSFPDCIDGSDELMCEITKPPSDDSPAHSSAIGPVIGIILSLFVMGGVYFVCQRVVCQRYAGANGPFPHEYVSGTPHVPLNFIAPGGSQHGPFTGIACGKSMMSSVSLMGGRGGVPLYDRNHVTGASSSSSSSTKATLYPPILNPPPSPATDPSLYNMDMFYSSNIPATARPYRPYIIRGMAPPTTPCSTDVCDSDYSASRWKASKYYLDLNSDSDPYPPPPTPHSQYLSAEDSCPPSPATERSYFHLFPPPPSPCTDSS
# From the text: (§2) It may be that the reduced effectiveness of Dkk inhibition of LRP5 which is observed for HBM is not necessarily mediated by enhancing or preventing the binding of Dkk to LRP5/LRP6/HBM. More than one mechanism may be involved. […] Further, it has been observed that different members of the Dkk family differentially affect LRP5/LRP6/HBM activity. Rather, the more preferred approach is to develop a drug or therapy which results in the desired protective benefits by reproducing as nearly as possible the subtle effect of HBM. The ability to refine and test potential drugs and therapies by comparing their effects to an animal model of HBM is among the major features of the present invention.
# [6] = target: T1, LRP6 (Homo sapiens, UniProt O75581); test: Dkk-1 binding to LRP6; settings: observed by the inventors
# T1 sequence (O75581 20-1613, species assumed): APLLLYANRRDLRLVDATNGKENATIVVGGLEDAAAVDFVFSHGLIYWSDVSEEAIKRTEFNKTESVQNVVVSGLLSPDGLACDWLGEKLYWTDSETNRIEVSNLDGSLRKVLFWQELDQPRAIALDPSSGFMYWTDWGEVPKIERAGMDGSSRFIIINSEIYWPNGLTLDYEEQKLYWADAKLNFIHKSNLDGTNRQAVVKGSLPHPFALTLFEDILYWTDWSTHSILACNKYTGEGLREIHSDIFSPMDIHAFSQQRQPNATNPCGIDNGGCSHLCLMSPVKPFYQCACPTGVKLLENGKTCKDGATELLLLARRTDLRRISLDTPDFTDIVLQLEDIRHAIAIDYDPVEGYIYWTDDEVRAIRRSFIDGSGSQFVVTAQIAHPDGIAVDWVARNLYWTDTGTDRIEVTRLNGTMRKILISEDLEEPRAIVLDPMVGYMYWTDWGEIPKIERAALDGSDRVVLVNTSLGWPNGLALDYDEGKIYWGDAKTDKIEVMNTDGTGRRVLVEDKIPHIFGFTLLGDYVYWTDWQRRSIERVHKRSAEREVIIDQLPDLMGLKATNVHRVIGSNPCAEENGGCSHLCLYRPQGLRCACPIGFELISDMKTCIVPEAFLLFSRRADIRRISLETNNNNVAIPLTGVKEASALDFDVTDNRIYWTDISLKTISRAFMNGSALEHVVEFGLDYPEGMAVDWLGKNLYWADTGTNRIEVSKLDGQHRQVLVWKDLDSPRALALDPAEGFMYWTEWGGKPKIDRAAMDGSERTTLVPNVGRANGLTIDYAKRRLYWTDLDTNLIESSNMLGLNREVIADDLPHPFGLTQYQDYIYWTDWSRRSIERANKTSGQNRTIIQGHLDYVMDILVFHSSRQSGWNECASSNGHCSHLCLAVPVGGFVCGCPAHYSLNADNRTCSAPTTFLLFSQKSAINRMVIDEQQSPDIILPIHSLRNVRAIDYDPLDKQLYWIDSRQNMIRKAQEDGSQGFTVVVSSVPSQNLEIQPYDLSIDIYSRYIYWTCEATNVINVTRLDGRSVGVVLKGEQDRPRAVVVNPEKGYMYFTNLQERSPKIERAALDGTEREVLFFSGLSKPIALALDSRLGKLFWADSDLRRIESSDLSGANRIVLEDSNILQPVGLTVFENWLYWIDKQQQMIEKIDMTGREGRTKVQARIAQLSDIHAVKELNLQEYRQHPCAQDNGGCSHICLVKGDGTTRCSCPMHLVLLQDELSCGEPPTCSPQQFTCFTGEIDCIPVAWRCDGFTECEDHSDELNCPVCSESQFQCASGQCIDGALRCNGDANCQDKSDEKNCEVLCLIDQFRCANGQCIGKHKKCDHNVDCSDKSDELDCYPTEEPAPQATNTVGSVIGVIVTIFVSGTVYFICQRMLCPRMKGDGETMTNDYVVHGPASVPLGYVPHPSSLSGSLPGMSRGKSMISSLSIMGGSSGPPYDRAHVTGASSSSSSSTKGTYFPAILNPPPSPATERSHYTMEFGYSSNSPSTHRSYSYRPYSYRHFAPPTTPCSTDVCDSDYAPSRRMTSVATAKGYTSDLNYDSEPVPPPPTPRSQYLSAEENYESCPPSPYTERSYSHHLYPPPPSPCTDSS
# From the text: as §2
# [7] = target: LRP5 (Homo sapiens, UniProt O75197); test: Dkk-1 binding to LRP5; settings: observed by the inventors
# Chain of LRP5 (O75197 32-1615): as the sequence (O75197 32-1615 G171V) above, with V140G counted along it
# From the text: 1, 2002, and 60/361,293 filed Mar. 4, 2002. The two-hybrid screen is a common procedure in the art, which is described, for example, by Gietz et al., Mol. Cell. Biochem. 172:67-79 (1997); Young, Biol. Reprod. 58:302-11 (1998); Brent and Finley, Ann. Rev. Genet. 31:663-704 (1997); and Lu and Hannon, eds., Yeast Hybrid Technologies, Eaton Publishing, Natick Mass., (2000).
# as §2
# [8] = system: Wnt pathway; test: Xenopus embryo assay of Wnt pathway stimulation; type: in vivo; settings: for stimulation of the Wnt pathway: in combination with Wnt5a
# From the text: Axin was also identified from the two hybrid experiments. This protein is involved in inhibition of the Wnt signaling pathway and interacts with the tumor suppressor APC. There is a link here with the focal adhesion signaling described above: one common step in the two pathways involves inhibition of glycogen synthase kinase 3, which in turn results in the activation of β-catenin/Lef-1 and AP-1 transcription factors. Axin/APC are involved in this as well as integrin linked kinase. The Wnt pathway has a role in determining cell fates during embryogenesis. If inappropriately activated, the Wnt pathway may also lead to cancer. The Wnt pathway also seems to have a role in cytoskeletal rearrangements. […] A model depicting LRP5 involvement in focal adhesion signaling is depicted in FIG. 15.
# [9] = target: T1, LRP6; settings: Mao et al.; cited from earlier work
# [10] = target: T1, LRP6; settings: Semenov et al.; cited from earlier work
# [11] = system: LRP5 G171V transgenic (het) and non-transgenic littermate (ntg) mice; test: hPTH treatment of LRP5 G171V transgenic and non-transgenic mice, femoral density by pQCT; type: in vivo, mouse; settings: for Percent Change in Bone Mass Density After 30 Days of hPTH Treatment, cortical, ntg / Percent Change in Bone Mass Density After 30 Days of hPTH Treatment, cortical, transgenic / Percent Change in Bone Mass Density After 30 Days of hPTH Treatment, total, ntg / Percent Change in Bone Mass Density After 30 Days of hPTH Treatment, total, transgenic / Percent Change in Bone Mass Density After 30 Days of hPTH Treatment, trabecular, ntg / Percent Change in Bone Mass Density After 30 Days of hPTH Treatment, trabecular, transgenic: left femur pQCT, vs vehicle controls
# Experimental: In order to further examine increases in bone density that were detected in select transgenic lines through monitoring of the animals by non-invasive bone imaging, necropsies were performed on animals of these lines at 5 and 9 weeks of age for direct bone densitometric and histologic analysis. The left femur was isolated, cleaned and positioned in an XCT Research peripheral Quantitative Computed Tomograph (pQCT; Stradtec Medizintechnik, Pforzheim, Germany). The distal end of the femur was located and pQCT scanning was initiated 2.5 mm proximal from this point for total and trabecular measurements. The pQCT scan for cortical measurements was initiated 3.5 mm proximal from the first scan (i.e., 6 mm proximal from the distal end). […] The soft tissue was automatically removed using an iterative algorithm, and the density of the remaining bone (total density) in the first slice was determined. The outer 55% of the bone was then peeled away in a concentric spiral and the density of the remaining bone (trabecular density) of the first slice was reported in mg/cm^3. In the second slice, the boundary between cortical and trabecular bone was determined using an iterative algorithm, and the density of the cortical bone was determined.
# […] Total, trabecular and cortical densities were measured in excised left femur by pQCT. PTH response was normalized to the bone densities of the vehicle group and expressed as percent change from their respective vehicle controls.
# [12] = extracellular domains, absence of Wnt5a
# [13] = ntg animals, treatment with PTH
molecule,measurement,setting,value
"C[C@]12CC[C@@H]3c4ccc(O)cc4CC[C@H]3[C@@H]1CC[C@@H]2O [E2, 17β-estradiol]",ovx-induced bone loss,[1],completely prevented
"Dkk-1: protein dickkopf-1, an antagonist of the Wnt pathway",repression of HBM-mediated Wnt signaling,[2],less effective
same,canonical Wnt signaling,"[3]; Bafico et al., Dkk-1 added at extremely low concentrations (30 pM)",repression
same,repression of LRP5-mediated Wnt signaling,[4],able to repress
same,binding to HBM,[5],binds
same,binding to LRP6,[6],binds
same,binding to LRP5,[7],binds
HBM: protein identical to LRP5 except for an alteration of glycine 171 to valine,stimulation of the Wnt pathway,[8],much greater extent
LRP5 ECD: extracellular domain (ECD) of LRP5,stimulation of Wnt signaling,[8]; [12],modest stimulation
LRP5: wild-type LRP5 protein (SEQ ID NO: 3),stimulation of the Wnt pathway,[8],modestly above the control
B1,Kd,[9],730 pM
B2,repression of Wnt signaling,[3]; Semenov et al.,unable to repress
same,LRP6 binding,[10],abolished
B3,stimulation of Wnt signaling,"[8]; extracellular domain, presence of Wnt5a",slightly increased
same,stimulation of Wnt signaling,[8]; [12],modest stimulation
B4,"Percent Change in Bone Mass Density After 30 Days of hPTH Treatment, cortical, ntg",[11]; Female,4%
same,"Percent Change in Bone Mass Density After 30 Days of hPTH Treatment, cortical, transgenic",[11]; Female,−1%
same,"Percent Change in Bone Mass Density After 30 Days of hPTH Treatment, total, ntg",[11]; Female,18%
same,"Percent Change in Bone Mass Density After 30 Days of hPTH Treatment, total, transgenic",[11]; Female,30%
same,"Percent Change in Bone Mass Density After 30 Days of hPTH Treatment, trabecular, ntg",[11]; Female,−3%
same,"Percent Change in Bone Mass Density After 30 Days of hPTH Treatment, trabecular, transgenic",[11]; Female,59%
same,"Percent Change in Bone Mass Density After 30 Days of hPTH Treatment, cortical, ntg","[11]; Male, hPTH 100 mg/kg/day sc",3%
same,"Percent Change in Bone Mass Density After 30 Days of hPTH Treatment, cortical, transgenic","[11]; Male, hPTH 100 mg/kg/day sc",2%
same,"Percent Change in Bone Mass Density After 30 Days of hPTH Treatment, total, ntg","[11]; Male, hPTH 100 mg/kg/day sc",23%
same,"Percent Change in Bone Mass Density After 30 Days of hPTH Treatment, total, transgenic","[11]; Male, hPTH 100 mg/kg/day sc",37%
same,"Percent Change in Bone Mass Density After 30 Days of hPTH Treatment, trabecular, ntg","[11]; Male, hPTH 100 mg/kg/day sc",5%
same,"Percent Change in Bone Mass Density After 30 Days of hPTH Treatment, trabecular, transgenic","[11]; Male, hPTH 100 mg/kg/day sc",80%
same,total femoral BMD,"[11]; both het and ntg, treatment with PTH",significant increase
same,trabecular bone compartment,"[11]; het animals, treatment with PTH",increase
same,cortical bone,[11]; [13],significant increase
same,trabecular BMD,[11]; [13],no changes
